{"source": "patent US20110294195A1", "biological_target": "CD81 on Huh7.5 cells (human) (UniProt P60033)", "sequence (P60033 whole entry)": "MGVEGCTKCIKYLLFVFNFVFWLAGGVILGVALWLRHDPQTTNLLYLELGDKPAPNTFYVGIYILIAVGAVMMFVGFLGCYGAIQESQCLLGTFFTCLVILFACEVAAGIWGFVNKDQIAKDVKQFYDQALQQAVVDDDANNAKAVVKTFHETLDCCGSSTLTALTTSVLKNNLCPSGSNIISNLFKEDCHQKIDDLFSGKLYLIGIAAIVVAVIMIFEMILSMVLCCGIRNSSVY", "test": "cell-based or functional assay", "data": [{"substance": "anti-CD81 (JS-81; BD Biosciences Pharmingen, Franklin Lakes, N.J.) (antibody)", "values": [{"measurement": "% inhibition of infection of Huh7.5 cells (FFU) with genotype 2a recombinant J6/JFH1 at 0.02 µg/mL anti-CD81", "value": "< 50", "unit": "% inhibition"}, {"measurement": "% inhibition of infection of Huh7.5 cells (FFU) with genotype 2a recombinant J6/JFH1 at 2.5 µg/mL anti-CD81", "value": "> 90", "unit": "% inhibition"}, {"measurement": "% inhibition of infection of Huh7.5 cells (FFU) with genotype 7a recombinant QC69/JFH1 at 0.02 µg/mL anti-CD81", "value": "< 50", "unit": "% inhibition"}, {"measurement": "% inhibition of infection of Huh7.5 cells (FFU) with genotype 7a recombinant QC69/JFH1 at 2.5 µg/mL anti-CD81", "value": "> 90", "unit": "% inhibition"}]}]}
